The values that follow come from publication PMC4822050.

One data set addresses T1, SRA-Spacer (human, UniProt Q96T88 414-674).
T1 sequence: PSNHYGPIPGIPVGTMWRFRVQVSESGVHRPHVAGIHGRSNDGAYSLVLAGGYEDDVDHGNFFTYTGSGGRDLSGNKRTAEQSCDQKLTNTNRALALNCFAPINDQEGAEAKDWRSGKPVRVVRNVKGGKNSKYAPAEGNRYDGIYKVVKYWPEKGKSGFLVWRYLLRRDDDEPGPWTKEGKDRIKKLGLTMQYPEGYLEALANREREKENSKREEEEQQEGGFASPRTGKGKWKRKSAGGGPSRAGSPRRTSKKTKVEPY
The data set is described as follows: FP; 150 mM NaCl; ITC: 10 mM HEPES pH 8.0, 100 mM NaCl, 18 C; EMSA: 20 mM HEPES pH 7.5, 100 mM NaCl, 8% glycerol, 1 mM DTT, on ice; pull-down: 20 mM HEPES-NaOH pH 8.0, 100 mM NaC.

Another data set deals with T2, SRA-Spacer-661 (human, UniProt Q96T88 414-661).
T2 sequence: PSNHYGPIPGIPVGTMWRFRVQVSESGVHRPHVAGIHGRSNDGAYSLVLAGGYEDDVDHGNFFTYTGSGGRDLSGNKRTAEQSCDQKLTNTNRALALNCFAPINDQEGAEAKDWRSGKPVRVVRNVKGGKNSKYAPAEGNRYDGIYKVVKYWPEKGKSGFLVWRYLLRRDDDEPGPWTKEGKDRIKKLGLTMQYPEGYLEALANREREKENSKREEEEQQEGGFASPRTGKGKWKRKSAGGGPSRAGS
The data set is described as follows: FP; ITC: 10 mM HEPES pH 8.0, 100 mM NaCl, 18 C; EMSA: 20 mM HEPES pH 7.5, 100 mM NaCl, 8% glycerol, 1 mM DTT, on ice; pull-down: 20 mM HEPES-NaOH pH 8.0, 100 mM NaC. In general terms: Mobility shift assays separate free from complexed probe on a gel.

A further data set has as its target T3, SRA-Spacer-652 (human, UniProt Q96T88 414-652).
T3 sequence: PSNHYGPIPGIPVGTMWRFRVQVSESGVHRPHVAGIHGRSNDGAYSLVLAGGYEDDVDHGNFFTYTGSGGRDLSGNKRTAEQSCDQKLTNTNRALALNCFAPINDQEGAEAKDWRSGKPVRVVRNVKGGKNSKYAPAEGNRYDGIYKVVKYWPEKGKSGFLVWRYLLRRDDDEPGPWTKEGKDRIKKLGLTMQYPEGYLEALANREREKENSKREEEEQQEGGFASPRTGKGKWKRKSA
Described as above.

The target of another data set is T4, UHRF1 deltaTTD (human, UniProt Q96T88 1-793, del134-285).
T4 sequence: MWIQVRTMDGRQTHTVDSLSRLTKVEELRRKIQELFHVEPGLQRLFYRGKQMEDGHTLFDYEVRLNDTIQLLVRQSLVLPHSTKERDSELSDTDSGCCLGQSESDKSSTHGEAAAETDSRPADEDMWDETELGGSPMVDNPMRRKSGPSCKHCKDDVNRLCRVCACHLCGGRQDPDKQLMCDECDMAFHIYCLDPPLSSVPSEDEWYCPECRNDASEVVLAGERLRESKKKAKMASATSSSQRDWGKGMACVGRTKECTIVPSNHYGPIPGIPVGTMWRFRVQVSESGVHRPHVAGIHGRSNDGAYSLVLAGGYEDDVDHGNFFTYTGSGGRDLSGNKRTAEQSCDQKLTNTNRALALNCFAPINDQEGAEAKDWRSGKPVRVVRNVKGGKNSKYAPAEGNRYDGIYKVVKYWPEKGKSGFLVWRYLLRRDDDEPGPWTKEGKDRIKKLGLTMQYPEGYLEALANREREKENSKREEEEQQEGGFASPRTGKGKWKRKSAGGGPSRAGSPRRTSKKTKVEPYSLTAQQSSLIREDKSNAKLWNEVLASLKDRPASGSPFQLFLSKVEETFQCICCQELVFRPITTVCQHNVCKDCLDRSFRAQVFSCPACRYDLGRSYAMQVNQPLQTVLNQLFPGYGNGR
The data set is described as above.

Another data set addresses T5, UHRF1 full-length (human, UniProt Q96T88 1-793).
T5 sequence: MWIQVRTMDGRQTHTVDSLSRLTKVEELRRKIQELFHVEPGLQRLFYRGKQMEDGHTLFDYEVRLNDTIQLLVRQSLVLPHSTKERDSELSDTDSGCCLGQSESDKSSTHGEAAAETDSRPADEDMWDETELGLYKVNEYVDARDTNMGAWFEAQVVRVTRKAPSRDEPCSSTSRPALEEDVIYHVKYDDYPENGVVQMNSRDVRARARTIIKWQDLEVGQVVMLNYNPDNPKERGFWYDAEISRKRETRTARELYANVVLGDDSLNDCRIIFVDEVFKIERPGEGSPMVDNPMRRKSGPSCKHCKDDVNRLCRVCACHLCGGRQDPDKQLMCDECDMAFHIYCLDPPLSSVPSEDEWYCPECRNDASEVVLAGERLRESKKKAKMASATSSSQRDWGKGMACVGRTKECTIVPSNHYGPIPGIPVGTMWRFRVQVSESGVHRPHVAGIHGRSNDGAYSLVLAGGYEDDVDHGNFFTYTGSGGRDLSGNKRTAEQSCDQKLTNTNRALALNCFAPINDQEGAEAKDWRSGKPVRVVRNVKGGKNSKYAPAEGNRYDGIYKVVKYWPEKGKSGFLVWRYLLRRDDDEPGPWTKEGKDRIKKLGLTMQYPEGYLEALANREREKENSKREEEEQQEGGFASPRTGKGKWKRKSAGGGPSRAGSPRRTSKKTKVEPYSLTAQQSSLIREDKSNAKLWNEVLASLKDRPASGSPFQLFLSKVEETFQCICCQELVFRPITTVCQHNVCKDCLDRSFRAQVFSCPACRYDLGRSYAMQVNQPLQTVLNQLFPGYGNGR
The data set is described as above.

B1: FAM-12bp-HM-DNA (dsDNA)
DNA 1: CCATGCGCTGAC
DNA 2: GTCAGCGCATGG
modifications: 5-methyl-dC at position 6 of strand 2 (GTCAGXGCATGG)
The term Kd denotes a measure of binding affinity in units of concentration. As to B1, the Kd came to 580 ± 98 nM in the data set with SRA-Spacer; 380 ± 60 nM in the data set with SRA-Spacer-661; 1870 ± 330 nM with SRA-Spacer-652; 490 ± 80 nM in the data set with UHRF1 deltaTTD; 350 ± 70 nM with UHRF1 full-length.
